Where no end group is shown, it is not given here.

Assay [1] addresses T1, 16 amino acid peptide containing the epitope for MA79b (ARSEDRYRNPKGSACK) (human, also: biotinylated (site not given here)).
T1 construct: synthesized; captured on a streptavidin coated sensor chip; also called biotinylated peptide
T1 peptide: ARSEDRYRNPKGSACK
Kind of assay: Biacore (SPR), biotinylated peptide captured on streptavidin chip. On the procedure:
Binding of Fab and IgG variants of MA79b, the MA79b-grafted “humanized” antibody or MA79b-grafted “humanized” antibody variants to immobilized huCD79becd or huCD79b-Fc or the 16 amino acid peptide containing the epitope for MA79b was measured by surface plasma resonance. Affinity determinations were performed by surface plasmon resonance using a BIAcore™-2000. The antigen, huCD79becd or huCD79b-Fc was immobilized (approximately 50-200 RU) in 10 mM sodium acetate pH 4.8 on a CM5 sensor chip. Due to a large avidity effect, affinity measurements were sensitive to the amount of huCD79becd immobilized. For this reason, affinities, determined for samples run on different days, were normalized to MA79b that was run along side as a standard. In experiments that measured binding to the 16 amino acid peptide containing the epitope for MA79b ([…]) (SEQ ID NO: 16), the biotinylated peptide was captured (approximately 20 RU) on a streptavidin coated sensor chip. Purified MA79b-grafted “humanized” antibody variant (as Fab or IgG) (a 2-fold serial dilution of 0.5 to 1000 nM in PBST) was injected at a flow rate of 30 μL/min. Each sample was analyzed with 4-minute association and 10-minute disassociation. After each injection the chip was regenerated using 10 mM Glycine pH 1.7. […]
Background: SPR reads the build-up and loss of mass on a sensor chip optically.

Assay [2] concerns the target T2, human CD79b (human, UniProt P40259 29-229).
T2 construct: endogenous CD79b on B-cell lines (BJAB, BJAB-luciferase, DoHH-2); also called PRO36249; CD79b expressed on the surface of BJAB-luciferase cells
T2 sequence: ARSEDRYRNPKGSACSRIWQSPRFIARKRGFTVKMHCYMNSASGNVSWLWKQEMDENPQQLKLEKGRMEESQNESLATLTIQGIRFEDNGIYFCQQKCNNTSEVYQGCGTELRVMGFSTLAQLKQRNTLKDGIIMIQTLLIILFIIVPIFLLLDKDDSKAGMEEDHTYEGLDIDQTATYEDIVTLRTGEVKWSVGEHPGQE
Description: Scatchard analysis, 125I-labeled IgG competed with unlabeled IgG on BJAB cells stably expressing cynomolgus CD79b and endogenous human CD79b. On the procedure: To further determine binding of the IgG variants having changes in HVR-L2 and HVR-H3 (huMA79b L2/H3), binding of iodinated IgG variants to BJAB cells expressing human CD79b and cynomologous CD79b was analyzed and Scatchard analysis was performed.
For Scatchard analysis, 0.5 nM I¹²⁵ labeled MA79b or huMA79b L2/H3 was competed against unlabeled MA79b or huMA79b L2/H3, respectively, ranging from 50 to 0.02 nM (12 step 1:2 serial dilution) in the presence of a transfected BJAB line stably expressing cynomologous-CD79b and endogenous human-CD79b. After a four hour incubation at 4° C., cells were washed and cell pellet counts were read by a gamma counter (1470 WIZARD Automatic Gamma Counter; Perkin Elmer, Walthem, Mass.). All points were done in triplicate and counted for 10 minutes. The average CPM was used for Kd calculation using the New Ligand (Genentech, South San Francisco, Calif.) program.

B1: MA79b-grafted humanized antibody variant L2/H3 (huMA79b L2/H3), IgG (antibody, name in Kabat numbering, V domains shown)
VH: EVQLVESGGGLVQPGGSLRLSCAASGYTFSSYWIEWVRQAPGKGLEWVGEILPGGGDTNYNEIFKGRFTISADTSKNTAYLQMNSLRAEDTAVYYCTRRVPIRLDYWGQGTLVTVSS
VL: DIQMTQSPSSLSASVGDRVTITCKASQSVDYDGDSFLNWYQQKPGKAPKLLIYAARKLGRGVPSRFSGSGSGTDFTLTISSLQPEDFATYYCQQSNEDPLTFGQGTKVEIKR
notes: L2-2 and H3-10 mutations combined on the huMA79b graft; 125I-labeled in the Scatchard assay
Take B1: the binding result in assay [1] is “binds”. Moreover, in assay [2], the Kd (commonly the concentration at which binding is half-saturated) stood at 0.52 nM.

These data come from patent US20140335107A1 (published 2014).
